Test results reported in US6576419.
pKd: −log10 of the molar value.

Biological target: anti-hCG monoclonal antibody from Organon Teknika, Boxtel, the Netherlands
Test: competition: hCG displaces FpepT from anti-hCG Mab, fluorescence at 590 nm, fit to exchange model (K1)

With “human chorionic gonadotrophin (hCG) (from UniProt P01215 25-116; P0DN86 21-165) (ligand)” the pKd was 9.31.
